Measured values reported in publication PMC6872814, “Functional interactions between nitrite reductase and nitric oxide reductase from Paracoccus denitrificans” (Scientific Reports, 2019).

Assays:
[1] = target: cytochrome c-dependent nitric oxide reductase (cNOR) from Paracoccus denitrificans, NorB and NorC, unlabelled (Paracoccus denitrificans) (UniProt Q51662)
[2] = target: cytochrome c-dependent nitric oxide reductase (cNOR) from Paracoccus denitrificans, NorB and NorC, unlabelled (Paracoccus denitrificans) (UniProt Q51662); remark: listed apart in the source
[3] = target: cytochrome c-dependent nitric oxide reductase (cNOR) from Paracoccus denitrificans, NorB and NorC, unlabelled (Paracoccus denitrificans) (UniProt Q51662); remark: listed apart in the source
[4] = target: cytochrome c-dependent nitric oxide reductase (cNOR) from Paracoccus denitrificans, NorB and NorC, unlabelled (Paracoccus denitrificans) (UniProt Q51662); remark: listed apart in the source

Sequence of horse heart cytochrome c (P00004 whole entry): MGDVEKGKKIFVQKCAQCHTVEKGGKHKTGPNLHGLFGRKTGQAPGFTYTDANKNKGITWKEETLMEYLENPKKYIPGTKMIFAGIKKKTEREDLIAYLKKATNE
Sequence of cytochrome c-dependent nitric oxide reductase (cNOR) from Paracoccus denitrificans, NorB and NorC, unlabelled (Paracoccus denitrificans) (Q51662 whole entry, looked up): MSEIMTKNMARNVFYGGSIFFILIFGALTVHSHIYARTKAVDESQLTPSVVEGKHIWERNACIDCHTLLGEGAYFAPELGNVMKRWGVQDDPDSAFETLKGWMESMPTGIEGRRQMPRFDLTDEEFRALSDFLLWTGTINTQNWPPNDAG
Sequence of cytochrome cd1 nitrite reductase (cd1NiR) from Paracoccus pantotrophus, labelled with Abberior STAR 635 (P72181 30-596): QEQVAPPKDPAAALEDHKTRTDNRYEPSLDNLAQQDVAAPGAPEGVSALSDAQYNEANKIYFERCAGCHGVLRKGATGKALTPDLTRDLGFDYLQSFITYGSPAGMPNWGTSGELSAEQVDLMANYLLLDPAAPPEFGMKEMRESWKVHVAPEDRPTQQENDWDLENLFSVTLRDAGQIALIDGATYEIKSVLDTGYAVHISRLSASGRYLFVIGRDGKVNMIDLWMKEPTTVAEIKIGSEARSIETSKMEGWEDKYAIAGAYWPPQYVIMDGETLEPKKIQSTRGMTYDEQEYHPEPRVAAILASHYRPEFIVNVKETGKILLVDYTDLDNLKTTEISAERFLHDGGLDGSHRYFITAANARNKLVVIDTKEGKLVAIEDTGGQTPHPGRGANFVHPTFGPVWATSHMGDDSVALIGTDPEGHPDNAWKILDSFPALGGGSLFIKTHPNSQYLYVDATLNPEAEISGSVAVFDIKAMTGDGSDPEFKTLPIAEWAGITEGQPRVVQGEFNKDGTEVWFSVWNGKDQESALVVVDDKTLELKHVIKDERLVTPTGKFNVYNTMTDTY

Substance | inhibition of the maximum NO-reduction activity (kmax at ~5 µM NO) of 40 nM detergent-solubilized cNOR, cd1NiR 0-200 nM; the inhibition is released at higher cd1NiR [1] [%] | relative kmax (kcat of the fit) of NO reduction by liposome-reconstituted cNOR in the presence of ~30 nM cd1NiR, cyt. c titration; control without cd1NiR = 100% [2] [%] | Km for cyt. c of NO reduction by liposome-reconstituted cNOR in the presence of ~30 nM cd1NiR (unchanged against the control) [3] [µM] | Km for cyt. c of NO reduction by liposome-reconstituted cNOR, side-by-side control without cd1NiR [3] [µM] | Km for cyt. c of NO reduction by cNOR in detergent (0.05% DDM) [4] [µM] | Km for cyt. c of NO reduction by liposome-reconstituted cNOR [4] [µM]
cytochrome cd1 nitrite reductase (cd1NiR) from Paracoccus pantotrophus, labelled with Abberior STAR 635 (from UniProt P72181 30-596) (enzyme) | 50 | 46 | – | – | – | –
horse heart cytochrome c (from UniProt P00004 1-105) (natural protein) | – | – | 0.15 | 0.2 | 0.8 | 0.8
